Source: article PMC6879724, “Insect Hsp90 Chaperone Assists Bacillus thuringiensis Cry Toxicity by Enhancing Protoxin Binding to the Receptor and by Protecting Protoxin from Gut Protease Degradation” (mBio, 2019)

Tests used:
[1] = target: Cry1Ac protoxin (Bacillus thuringiensis (strain HD73), UniProt P05068 1-1178); test: ELISA; plates coated with 0.5 ug protoxin or activated toxin in PBS; PxHsp90 in Hsp90 buffer (1 mM ATP, 1 mM Mg in PBS) added for 1 h at 37 C; detected with anti-polyhistidine-peroxidase antibody; one sample without ATP (binding significantly reduced); details: both partners purified
[2] = target: T1, Cry1Ab protoxin (Bacillus thuringiensis, UniProt P0A370 1-1155); test: as above; details: both partners purified
T1 construct: also called 130-kDa protoxin

B1: Plutella xylostella Hsp90 (natural protein)
chain: not shown
notes: Hsp90 of Plutella xylostella, gene Pxhsp90 (GenBank AB214972.1), amplified from genomic DNA with primers from the start codon (NdeI) to the stop codon (BamHI); Cloned NdeI-BamHI into pET28b with its own stop codon, so the His tag is probably N-terminal (surmised); detected in the ELISA with an anti-polyhistidine antibody; also called PxHsp90; source: E. coli BL21 (pET28b), purified (Ni-NTA from …)
Does B1 bind [1]?
Result: binds

Does B1 bind [2]?
Result: binds
